Drawing on US20140359899A1, this text covers Km for one substance.

This data set has as its system T1, OC[C@H]1O[C@@](CO)(O[C@H]2O[C@H](CO)[C@@H](O)[C@H](O)[C@H]2O)[C@@H](O)[C@@H]1O.
T1 construct: Primers for the full length ORF of AtSWEET11 (AtSWT11FattB1 and AtSWT11attB2) or AtSWEET12; expressed in transfected cells; host or cells: Xenopus oocytes injected with capped cRNA from pOO2-GW
The experiment in a line: Oocyte uptake assay: [14C]-sucrose uptake in Xenopus oocytes expressing AtSWEET12. The class given is cell-based, Arabidopsis. As to conditions: other: Xenopus oocytes; FIG. 1F.

Chain of AtSWEET12 (Arabidopsis thaliana) (chain, as listed by the source): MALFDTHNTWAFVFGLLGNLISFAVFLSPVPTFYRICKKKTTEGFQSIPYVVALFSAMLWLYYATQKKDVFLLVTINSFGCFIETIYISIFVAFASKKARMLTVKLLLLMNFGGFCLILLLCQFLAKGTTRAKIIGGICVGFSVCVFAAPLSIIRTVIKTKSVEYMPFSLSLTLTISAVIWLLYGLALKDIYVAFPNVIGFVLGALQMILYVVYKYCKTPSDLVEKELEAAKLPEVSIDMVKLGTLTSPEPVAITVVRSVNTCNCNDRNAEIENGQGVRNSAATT

With AtSWEET12 (Arabidopsis thaliana), the Km was determined as 70 mM.

Usually Km stands for the concentration of substrate that gives half-maximal velocity.
